Measured values: patent publication US20180214568A1 (US Dept. of Health and Human Services, published 2018)

B1: m906 IgG1 (antibody, V domains shown)
VH: EVQLVQSGAEVKKPGSSVKVSCKASGGTFTGYYMHWVRQAPGQGLEWMGWINPNSGGTNYAQKFQGRVTMTRDTSISTAYMELSRLRSDDTAVYYCARDLSSGYSGYFDYWGQGTLVTVSS
VL: DVVMTQSPLSLPVTPGEPASISCRSSQSLLHSNGYNFLDWYLQKPGQSPQLLIYLGSNRASGVPDRFSGSGSGTDFTLKISRVEADDVGVYYCMQSLQTPWTFGHGTKVEIKR
B2: m900 IgG1 (antibody, V domains shown)
VH: not shown
VL: EIVLTQSPATLSLSPGERATLSCRASQSVSSYLAWYQQKPGQAPRLLIYDASNRATGIPARFSGSGSGTDFTLTISSVQAEDVGVYYCQQYHGTPTFGQGTKVEIKR

Target: T1, mouse CD56 (mouse, UniProt P13595 20-711, limits assumed)
T1 construct: the construct is not described
T1 sequence (P13595 20-711 limits assumed): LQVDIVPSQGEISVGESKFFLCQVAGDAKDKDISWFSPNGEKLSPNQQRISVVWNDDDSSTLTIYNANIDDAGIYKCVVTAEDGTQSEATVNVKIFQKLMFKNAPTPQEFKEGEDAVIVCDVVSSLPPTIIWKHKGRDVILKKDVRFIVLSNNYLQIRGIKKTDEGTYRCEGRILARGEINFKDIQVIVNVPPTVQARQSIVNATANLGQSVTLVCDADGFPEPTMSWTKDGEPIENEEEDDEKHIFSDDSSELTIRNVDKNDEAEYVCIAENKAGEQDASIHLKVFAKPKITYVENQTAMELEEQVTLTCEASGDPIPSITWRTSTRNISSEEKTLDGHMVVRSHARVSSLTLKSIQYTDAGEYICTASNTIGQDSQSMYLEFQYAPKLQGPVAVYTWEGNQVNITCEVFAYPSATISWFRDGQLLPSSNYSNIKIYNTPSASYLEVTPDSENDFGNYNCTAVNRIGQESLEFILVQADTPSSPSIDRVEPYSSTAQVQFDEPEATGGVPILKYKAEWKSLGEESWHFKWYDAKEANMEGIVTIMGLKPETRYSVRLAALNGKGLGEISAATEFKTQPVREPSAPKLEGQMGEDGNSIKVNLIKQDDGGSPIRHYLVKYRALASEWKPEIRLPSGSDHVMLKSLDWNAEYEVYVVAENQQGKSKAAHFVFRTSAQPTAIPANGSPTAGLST
Experiment: ELISA on coated mouse CD56 ectodomain, IgG titrated, OD405
Procedure: Protein was coated on ELISA plate wells at 50 ng/well in PBS at 4° C. overnight. After blocking of unbound surface with 2% non-fat dried milk in PBST, serially diluted antibody solutions were added, and incubated for 2 hours at 37° C. The bound human antibodies were detected with goat anti-human Fc specific IgG conjugated with horseradish peroxidase.

| Binder | EC50 (read off the curve) [nM] | binding result |
| --- | --- | --- |
| B1 | ~0.08 | – |
| B2 | – | no binding (tested: 1000 nM) |
